The values that follow come from patent publication US8129592B2, “Plant isoflavonoid hydroxylases and methods of use thereof” (The Samuel Roberts Noble Foundation, Inc., priority 2003, dated 2012).

Substrate in data set [1]: COc1ccc(-c2coc3cc(O)cc(O)c3c2=O)cc1
Nature of the data set: Hydroxylase assay with yeast microsomes expressing recombinant MtCYP81E9 (I3′H). It is filed as biochemical, Medicago truncatula. To be noted: other: 2 mM NADPH and pH 8.0, 25.0 °C.

Substrate in data set [2]: COc1ccc(-c2coc3cc(O)ccc3c2=O)cc1
The data set is described as above. Type of data set: biochemical, Medicago truncatula. To be noted: other: 2 mM NADPH and pH 8.0, 25.0 °C.

B1: I3′H (MtCYP81E9) (Medicago truncatula) (protein)
chain: MTLFYYSLLSLSFIITIKILLKITSRRLKNLPPGPPTIPIIGNLHHLKHPLHRTFTTLSQTYGDIFSLWFGSRLVVVVSSPSLAHECFTKNDIILANRPRFLTGKYIFYNYTTLGSASYGDHWRNLRRITTIDVLSNNRLNSFLGVRRDETNRLIQKLLKDVVSEGFGFTKVELRPRLTEMTFNAMMRMISGKRYYGDDGDVSDVEEAKQFREIISEMMSLLGANNKGDFLPLLRVVDLDNLEKRCKRIAKRSNAFLEGLIEEHRRGNIHSDGGTMIDHLLKLSESQPEYYSDHLIKGLIQGMLLAGTDTSAVTIEWVMSELLNHPEVLKKAKEELDTQIGKNKLVDEQDLSKLPYLQNIISETLRLHPPAPLLLPHYSSEDCTIGEFNVPKDTIILTNVWGIHRDPKHWNDALSFKPERFEKEEEVNKVMAFGLGRRACPGLSLAQRTVGFTVGLLIQCFEWERESEEKLDMMEGKGITMPMKIPLRAMCKALPIANDVTK
notes: made in house; host or cells: Saccharomyces cerevisiae WAT11, vector YeDP60; microsomal fraction
Take B1: the Km was 112.6 µM in data set [1] and 49.7 µM in data set [2]. Further, the turnover number (kcat) in data set [1] came to 0.1 s⁻¹; in data set [2], 0.028 s⁻¹.
